How the values were obtained:
[1] = target: human TGFβ1 (transforming growth factor beta 1) (human) (UniProt P01137); experiment: A549 cell radioreceptor assay, inhibition of 125I-TGFβ1 binding to receptors
[2] = target: human TGFβ2 (transforming growth factor beta 2) (human) (UniProt P61812); experiment: cell-based or functional assay
[3] = target: human TGFβ1 (transforming growth factor beta 1) (human) (UniProt P01137); experiment: cell-based or functional assay
[4] = target: TGFβ3 (transforming growth factor beta 3) (UniProt P10600); experiment: cell-based or functional assay
[5] = target: human TGFβ2 (transforming growth factor beta 2) (human) (UniProt P61812); experiment: A549 cell radioreceptor assay, inhibition of 125I-TGFβ2 binding to receptors
[6] = target: TGFβ3 (transforming growth factor beta 3) (UniProt P10600); experiment: A549 cell radioreceptor assay, inhibition of 125I-TGFβ3 binding to receptors

Chain of human TGFβ1 (transforming growth factor beta 1) (human) (P01137 279-390 limits assumed): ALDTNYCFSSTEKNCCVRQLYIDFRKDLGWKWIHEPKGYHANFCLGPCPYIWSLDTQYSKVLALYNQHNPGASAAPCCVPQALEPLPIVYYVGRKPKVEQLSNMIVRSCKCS
Chain of TGFβ3 (transforming growth factor beta 3) (P10600 301-412 limits assumed): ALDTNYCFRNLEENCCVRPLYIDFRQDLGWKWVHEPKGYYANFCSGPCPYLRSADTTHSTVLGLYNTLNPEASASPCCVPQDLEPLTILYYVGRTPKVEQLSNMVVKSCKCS
Chain of human TGFβ2 (transforming growth factor beta 2) (human) (P61812 303-414): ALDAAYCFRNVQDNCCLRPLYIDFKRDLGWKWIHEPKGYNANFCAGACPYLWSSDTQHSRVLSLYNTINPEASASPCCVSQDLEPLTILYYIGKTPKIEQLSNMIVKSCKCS

Substance: mouse monoclonal antibody from Genzyme (Mouse anti-TGF β1,2,3; J.R. Dasch et al.)
- IC50 [1]: 0.55 nM
- TF1 cell proliferation assay IC50 (nM IgG) [2]: 10 nM
- TF1 cell proliferation assay IC50 (nM IgG) [3]: 1.5 nM
- TF1 cell proliferation assay IC50 (nM IgG) [4]: 0.1 nM
- IC50 [5]: 0.5 nM
- IC50 [6]: 0.03 nM

From EP0853661B1
